Test results reported in patent US7067274B2, “Compositions and methods for the screening pro-apoptotic compounds” (Genentech, Inc., priority 2003, dated 2006).

How the values were obtained:
[1] = target: Hid-FAM (5-carboxyflourescein-conjugated AVPFAK(5-FAM)K); assay: Fluorescence polarization affinity measurement with Hid-FAM probe; type: binding; conditions: 5 nM Hid-FAM, apparent Kd from EC50
Description: Polarization experiments were performed on an Analyst™ HT 96-384 (Molecular Devices Corp.). […] The reactions were read after an incubation time of 10 minutes at room temperature with standard cut-off filters for the fluorescein fluorophore (λex=485 nm; λem=530 nm) in 96-well black HE96 plates (Molecular Devices Corp.). Fluorescence polarization values were plotted as a function of the protein concentration, and the EC50 values were obtained by fitting the data to a 4-parameter equation using Kaleidagraph™ software (Synergy software, Reading, Pa.). The apparent Kd values were determined from the EC50 values.
(§1) The binding affinity of the Hid-FAM probe for each of the BIR domains was determined directly using a fluorescence polarization-based assay and the result is shown graphically in FIG. 8.

MCF7 cells = assay: Inhibition of doxorubicin-induced apoptosis in transfected MCF7 cells; type: cell-based; conditions: MCF7 cells transiently transfected, doxorubicin 0.5 μg/ml
Description: MCF7 cells were transiently transfected with the reporter plasmid pCMV-βgal and either vector control alone or BIR domain constructs. Following transfection, cells were exposed to doxorubicin (adriamycin; 0.5 μg/ml), stained with X-gal and apoptosis assessed by counting live and dead transfected cells. Percentage apoptosis represents the mean value of at least four sample points and is representative of three independent experiments.

caspase-9 = target: T1, caspase-9 (Homo sapiens, UniProt P55211); assay: Caspase-9 co-immunoprecipitation in transfected 293T cells; type: cell-based; conditions: Flag-tagged BIR domain proteins, IP anti-Flag
T1 construct: expressed in transfected cells; host or cells: 293T cells
T1 sequence (P55211 1-315 limits assumed): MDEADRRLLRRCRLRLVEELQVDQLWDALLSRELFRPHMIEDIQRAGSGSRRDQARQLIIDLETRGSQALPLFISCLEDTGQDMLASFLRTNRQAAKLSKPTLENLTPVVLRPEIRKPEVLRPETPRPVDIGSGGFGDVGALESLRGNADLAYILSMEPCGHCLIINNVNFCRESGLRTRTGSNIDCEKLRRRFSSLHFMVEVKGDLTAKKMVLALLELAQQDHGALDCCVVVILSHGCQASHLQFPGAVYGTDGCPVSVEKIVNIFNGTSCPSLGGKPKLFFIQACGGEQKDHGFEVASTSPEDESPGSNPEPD
T1 sequence (P55211 331-416 limits assumed): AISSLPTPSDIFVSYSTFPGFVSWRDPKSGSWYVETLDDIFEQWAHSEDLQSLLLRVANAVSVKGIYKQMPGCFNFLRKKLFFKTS
Description: 293T cells were transiently transfected with caspase-9 and Flag-tagged BIR domain proteins or vector. After 40 h, cells were lysed in NP40 lysis buffer (120 mM Tris, 150 mM NaCl, 1% NP-40, 1 mM DTT and protease inhibitor cocktail) and lysates immunoprecipitated (IP) with anti-Flag antibody. Samples were then Western blotted with anti-caspase-9 and anti-Flag antibodies. […] When overexpressed, caspase-9 undergoes autocatalytic processing and it is the processed form that physically interacts with XIAP and ML-IAP BIR domains.

ΔCARD human caspase 9 = target: T2, ΔCARD human caspase 9 (Homo sapiens, UniProt P55211, D305A/E304A/E306A); assay: Determination of caspase-9 inhibitory constants (Ac-LEHD-AFC hydrolysis); type: biochemical; conditions: 300 nM ΔCARD caspase 9, 100 μM Ac-LEHD-AFC, 37° C.; read-out: Caspase-9 inhibition Ki(app)
T2 construct: made in house
T2 sequence (P55211 139-315 E304A/D305A/E306A limits assumed): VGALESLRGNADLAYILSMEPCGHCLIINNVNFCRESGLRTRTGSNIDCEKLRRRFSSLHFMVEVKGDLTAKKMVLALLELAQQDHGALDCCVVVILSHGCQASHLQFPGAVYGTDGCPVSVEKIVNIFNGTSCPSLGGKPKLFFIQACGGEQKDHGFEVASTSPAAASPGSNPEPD
T2 sequence (P55211 316-416 limits assumed): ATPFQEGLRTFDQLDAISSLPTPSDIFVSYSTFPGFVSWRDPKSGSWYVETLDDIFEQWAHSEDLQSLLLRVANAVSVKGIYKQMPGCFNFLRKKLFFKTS
Description: ΔCARD (caspase recruitment domain) human caspase 9 (lacking the first 138 residues) with Ala substitutions at residues 304 to 306 was produced as described previously (Boatright et al., (2003) Mol Cell 11: 529–541). The third BIR of […] (residues 252–348) was also prepared as described previously (Sun et al., (2000) J Biol Chem 275(43): 33777–81).
Determination of Caspase-9 Inhibitory Constants: Recombinant ΔCARD caspase 9 (300 nM final concentration in the assay) was preactivated in salt-free caspase buffer (20 mM PIPES, 10 mM EDTA, 0.1% CHAPS and 10% (w/v) sucrose, pH 7.2) for 15 min at 37° C. Following this, a range of inhibitor concentrations were preincubated with the enzyme for 20 min at 37° C. The assay was started by the addition of Ac-LEHD-AFC (100 μM final concentration) and measured kinetically for 30 min using an fmax Fluorescence Plate Reader (Molecular Devices) at an excitation wavelength of 405 nm and an emission wavelength of 510 nm. Reaction mixtures were thermostatically controlled at 37° C. The individual Ki values for the inhibitors [I] were determined from the uninhibited substrate hydrolysis rate (vo) and the inhibited rates (vi), so that a plot of (vo/vi)−1 against [I] gives Ki(app), the equilibrium inhibition constant in the presence of substrate (Salvesen and Nagase, (1989) Proteolytic enzymes: A practical approach. R. J. Beynon and J. S. Bond. Oxford, IRL Press: 83–104).

[2] = target: wild-type mature Smac protein; assay: Fluorescence polarization competition assay, mature Smac protein; type: binding, human; conditions: competition with 5 nM Hid-FAM probe, Ki from IC50
Description: A PCR product containing amino acids 56–239 of Smac/DIABLO (accession number SMAC_HUMAN) was cloned into the XbaI/XhoI sites of a pet21b+ (Novagen) generating a C-terminal His6 fusion. Pet21bSmac was transformed into Escherichia coli strain BL21(DE3) competent cells (Stratagene). Overnight cultures were diluted 1:100 and grown at 37° C. in LB media with 50 μg/ml carbenicillin to an A600 of 0.8 with vigorous shaking. Isopropyl-β-D-1-thiogalactopyranoside (IPTG) was added to a final concentration of 1 mM and cultures were grown overnight at 16° C. Cell pellets were resuspended in Buffer A (50 mM Tris (pH 8.0), 300 mM NaCl, 0.5 mM PMSF, 2 mM benzamidine, 5 mM β-mercaptoethanol) with 5 mM imidazole and placed on ice for 30 minutes. Cells were homogenized, microfluidized, and centrifuged at 15,000 rpm for 45 minutes. Supernatant was loaded onto a Ni-NTA agarose column (Qiagen™), washed with 10 column volumes Buffer A with 10 mM imidazole, and eluted with 10 column volumes Buffer A with 300 mM imidazole. Fractions containing Smac protein were pooled, concentrated and loaded on a Superdex™ 200 sizing column. Protein eluted over one column volume into 50 mM Tris (pH 7.6), 300 mM NaCl, 0.5 mM PMSF, 2 mM benzamidine and 5 mM DTT. Fractions containing Smac protein were pooled and dialyzed against 3 changes of buffer containing 50 mM Tris (pH 7.6), 0.5 mM PMSF, 2 mM benzamidine and 5 mM DTT. The dialyzed sample was loaded onto a Q-Sepharose™ FF column (Pharmacia) and eluted over a 10 column volume gradient from zero to 1 M NaCl in buffer 50 mM Tris (pH 7.6), 0.5 mM PMSF, 2 mM benzamidine and 5 mM DTT. The cDNA encoding full-length ML-IAP plus a N-terminal His6-tag was cloned into the pET15b(+) expression vector (Novagen). ML-IAP was expressed in E. coli strain BL21(DE3)pLysS. […] The protein concentration of purified proteins was determined from the absorbance at 280 nm based on the molar absorption coefficients calculated from the Edelhoch relationship (Edelhoch, (1967) Biochemistry 6: 1948–1954).
(§2) Samples were read after a 10-minute incubation. Fluorescence polarization values were plotted as a function of the antagonist concentration, and the IC50 values were obtained by fitting the data to a 4-parameter equation using Kaleidagraph™ software (Synergy software; Reading, Pa.). Inhibition constants (Ki) for the antagonists were determined from the IC50 values (Keating et al., (2000) Putting the pieces together: contribution of fluorescence polarization assays to small-molecule lead optimization. Proceedings of SPIE: In-Vitro Diagnostic Instrumentation.).
as §1

[3] = target: Smac-9mer peptide (AVPIAQKSE); assay: Fluorescence polarization competition assay, Smac-9mer peptide; type: binding; conditions: competition with 5 nM Hid-FAM probe, Ki from IC50
Description: as §2

B1: ML-IAP-BIR: wild-type ML-IAP BIR domain construct, amino acids 63–179 of accession number BIR7_HUMAN (protein)
chain: TEEEEEEGAGATLSRGPAFPGMGSEELRLASFYDWPLTAEVPPELLAAAGFFHTGHQDKVRCFFCYGGLQSWKRGDDPWTEHAKWFPSCQFLLRSKGRDFVHSVQETHSQLLGSWDP
modifications: left off: small tags and cut ends
B1 was tested, and the Kd [1] was 21 nM, the “inhibition of doxorubicin-induced apoptosis” value (MCF7 cells) was “confers resistance” and the “caspase-9 binding efficiency (co-immunoprecipitation, Western blot)” value (caspase-9) was “co-imnunoprecipitates processed caspase-9”. The Ki (ΔCARD human caspase 9) was 3200 nM, the Ki [2] was 26 nM and the Ki [3] was 200 nM.
